We go through two molecules from article PMC2956967, “Cytochrome P450 102A2 Catalyzes Efficient Oxidation of Sodium Dodecyl Sulphate: A Molecular Tool for Remediation” (Enzyme Research, 2010).

The target in one data set is T1, CYP102A2 (Bacillus subtilis, UniProt O08394).
T1 construct: gene cypD; full-length heme-diflavin reductase fusion, about 119 kDa per active site; PCR from genomic DNA, pCR T7/CT-TOPO, E. coli BL21(DE3); untagged enzyme and C-terminal 6His version both made, said kinetically alike
T1 sequence (O08394 1-1061): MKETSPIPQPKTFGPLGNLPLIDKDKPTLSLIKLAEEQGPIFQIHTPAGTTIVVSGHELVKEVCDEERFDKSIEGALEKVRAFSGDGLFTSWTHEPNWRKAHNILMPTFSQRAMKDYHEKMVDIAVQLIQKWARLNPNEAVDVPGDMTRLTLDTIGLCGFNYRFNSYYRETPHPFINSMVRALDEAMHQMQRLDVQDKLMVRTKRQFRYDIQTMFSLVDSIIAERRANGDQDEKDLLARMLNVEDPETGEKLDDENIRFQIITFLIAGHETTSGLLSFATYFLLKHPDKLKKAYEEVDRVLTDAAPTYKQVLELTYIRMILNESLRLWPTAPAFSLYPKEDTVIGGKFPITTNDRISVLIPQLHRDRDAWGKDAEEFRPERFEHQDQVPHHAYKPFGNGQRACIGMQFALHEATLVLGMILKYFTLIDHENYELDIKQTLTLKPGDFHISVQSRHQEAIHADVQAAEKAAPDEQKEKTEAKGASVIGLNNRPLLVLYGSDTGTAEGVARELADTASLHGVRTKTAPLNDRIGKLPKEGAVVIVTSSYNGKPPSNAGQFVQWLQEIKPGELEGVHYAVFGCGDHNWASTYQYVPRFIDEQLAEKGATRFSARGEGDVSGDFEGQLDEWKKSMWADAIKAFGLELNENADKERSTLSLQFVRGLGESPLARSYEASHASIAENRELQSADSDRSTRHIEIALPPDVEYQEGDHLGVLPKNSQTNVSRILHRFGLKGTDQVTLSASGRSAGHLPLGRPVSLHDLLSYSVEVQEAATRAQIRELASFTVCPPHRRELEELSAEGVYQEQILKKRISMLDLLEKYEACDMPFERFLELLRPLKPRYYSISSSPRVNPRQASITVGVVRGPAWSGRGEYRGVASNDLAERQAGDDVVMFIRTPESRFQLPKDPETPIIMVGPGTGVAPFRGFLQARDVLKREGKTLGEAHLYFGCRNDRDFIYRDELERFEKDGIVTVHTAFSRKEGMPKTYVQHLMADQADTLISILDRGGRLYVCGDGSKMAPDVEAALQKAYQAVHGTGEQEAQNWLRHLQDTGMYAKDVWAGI
Nature of the data set: product inhibition, NADPH oxidation at […] nm. In kind it is biochemical.

Substrate in data set [1]: CCCCCCCCCCCC(=O)O
Nature of the data set: purified protein. In kind it is biochemical, Bacillus subtilis. The conditions noted are these: NADPH co-substrate, 0.1 M potassium phosphate pH 7.2, 37 °C, sigmoidal, nH 8.7.

Substrate in data set [2]: CCCCCCCCCCCCOS(=O)(=O)O
Nature of the data set: purified protein. The format is biochemical, Bacillus subtilis. The note with it: 0.1 mM NADPH, 0.1 M potassium phosphate pH 7.2, 37 °C, SDS 0.34-1.73 mM, sigmoidal, nH 5.7.

Substrate in data set [3]: NC(=O)C1=CN([C@@H]2O[C@H](COP(=O)(O)OP(=O)(O)OC[C@H]3O[C@@H](n4cnc5c(N)ncnc54)[C@H](OP(=O)(O)O)[C@@H]3O)[C@@H](O)[C@H]2O)C=CC1
Briefly: purified protein. The format is biochemical, Bacillus subtilis. The conditions noted are these: 1.735 mM SDS co-substrate, 0.1 M potassium phosphate pH 7.2, 37 °C, NADPH 6.6-100 μM.

The Ki is a measure of affinity in units of concentration, obtained from inhibition or displacement. As to `NC(=O)c1ccc[n+]([C@@H]2O[C@H](COP(=O)(O)OP(=O)(O)OC[C@H]3O[C@@H](n4cnc5c(N)ncnc54)[C@H](OP(=O)(O)O)[C@@H]3O)[C@@H](O)[C@H]2O)c1` [NADP^+], at CYP102A2, the Ki came out at 100 µM.

B1: CYP102A2 (Bacillus subtilis subsp. subtilis str. 168) (protein)
chain: MKETSPIPQPKTFGPLGNLPLIDKDKPTLSLIKLAEEQGPIFQIHTPAGTTIVVSGHELVKEVCDEERFDKSIEGALEKVRAFSGDGLFTSWTHEPNWRKAHNILMPTFSQRAMKDYHEKMVDIAVQLIQKWARLNPNEAVDVPGDMTRLTLDTIGLCGFNYRFNSYYRETPHPFINSMVRALDEAMHQMQRLDVQDKLMVRTKRQFRYDIQTMFSLVDSIIAERRANGDQDEKDLLARMLNVEDPETGEKLDDENIRFQIITFLIAGHETTSGLLSFATYFLLKHPDKLKKAYEEVDRVLTDAAPTYKQVLELTYIRMILNESLRLWPTAPAFSLYPKEDTVIGGKFPITTNDRISVLIPQLHRDRDAWGKDAEEFRPERFEHQDQVPHHAYKPFGNGQRACIGMQFALHEATLVLGMILKYFTLIDHENYELDIKQTLTLKPGDFHISVQSRHQEAIHADVQAAEKAAPDEQKEKTEAKGASVIGLNNRPLLVLYGSDTGTAEGVARELADTASLHGVRTKTAPLNDRIGKLPKEGAVVIVTSSYNGKPPSNAGQFVQWLQEIKPGELEGVHYAVFGCGDHNWASTYQYVPRFIDEQLAEKGATRFSARGEGDVSGDFEGQLDEWKKSMWADAIKAFGLELNENADKERSTLSLQFVRGLGESPLARSYEASHASIAENRELQSADSDRSTRHIEIALPPDVEYQEGDHLGVLPKNSQTNVSRILHRFGLKGTDQVTLSASGRSAGHLPLGRPVSLHDLLSYSVEVQEAATRAQIRELASFTVCPPHRRELEELSAEGVYQEQILKKRISMLDLLEKYEACDMPFERFLELLRPLKPRYYSISSSPRVNPRQASITVGVVRGPAWSGRGEYRGVASNDLAERQAGDDVVMFIRTPESRFQLPKDPETPIIMVGPGTGVAPFRGFLQARDVLKREGKTLGEAHLYFGCRNDRDFIYRDELERFEKDGIVTVHTAFSRKEGMPKTYVQHLMADQADTLISILDRGGRLYVCGDGSKMAPDVEAALQKAYQAVHGTGEQEAQNWLRHLQDTGMYAKDVWAGI
notes: full-length heme-diflavin reductase fusion, about 119 kDa per active site; PCR from genomic DNA, pCR T7/CT-TOPO, E. coli BL21(DE3); untagged enzyme and C-terminal 6His version both made, said kinetically alike
A word on the Vmax: it is the top rate of the reaction or transport when substrate is in excess. A word on the Km: it is the concentration of substrate that gives half-maximal velocity. Usually kcat stands for the number of substrate molecules converted per active site and unit of time at saturation. In general, kcat/Km refers to the second-order rate constant that governs catalysis at low substrate concentration. Turning to B1, in the data set “purified protein [1]”, the K0.5 is on record as 0.47 ± 0.005 mM and the Vmax was 0.088 µmol/min. Moreover, in “purified protein [2]”, the K0.5 came out at 1.22 ± 0.04 mM and the Vmax turned out to be 0.18 µmol/min. Further, in the data set “purified protein [3]”, the Michaelis constant (Km) is 8.30 ± 0.62 µM, the kcat turned out to be 2.05 ± 0.05 s⁻¹ and the kcat/Km was found to be 250000 M⁻¹ s⁻¹.
